Experimental findings from patent US20240360242A1 (KISOJI BIOTECHNOLOGY, published 2024) are described below.

In general, EC50 refers to the midpoint of the concentration-response curve.

The target of assay [1] is T1, recombinant human TROP2 extracellular domain (aa 1-274) comprising His tag (human, UniProt P09758 27-274).
T1 construct: Used here for all assays on recombinant human TROP2 (ELISA, immunoblot, SPR, crystal), although only some of them name the catalogue number; also called human recombinant TROP2; recombinant human TROP2 protein; not shown: His tag
T1 sequence: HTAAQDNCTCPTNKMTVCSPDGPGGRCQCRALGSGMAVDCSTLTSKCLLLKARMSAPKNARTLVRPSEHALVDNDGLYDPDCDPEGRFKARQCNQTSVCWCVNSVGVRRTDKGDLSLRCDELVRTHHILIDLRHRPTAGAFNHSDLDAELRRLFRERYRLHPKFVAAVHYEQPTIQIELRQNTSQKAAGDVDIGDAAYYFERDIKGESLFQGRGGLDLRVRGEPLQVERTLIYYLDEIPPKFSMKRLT
In words: ELISA, coated rh TROP2. The procedure: Human TROP2 recombinant proteins were coated on 96-well ELISA plates at the concentration of 1 μg/mL. Plates were covered with adhesive plate cover and stored at 4° C. overnight. The next day, plates were washed 3× with washing buffer (PBS with 0.1% Tween™ 20). Plates were blocked with 2% fat-free BSA in washing buffer for 1 hour at 37° C. During the incubation time, the TROP2 reference antibodies, as well as the humanized variants, were diluted in the blocking buffer to the indicated concentrations. […] After blocking, the blocking buffer was removed from the wells and 100 μL of anti-TROP2 sdAbs dilutions were transferred to the corresponding wells. Plates were covered with adhesive plates cover and incubated at 37° C. for 1 hour. During the primary antibody incubation, the secondary antibody (goat anti-human IgG, HRP conjugated) was diluted 1 in 5000 with the blocking buffer. Plates were washed 3× with blocking buffer, followed by secondary antibody incubation for another 1 hour at 37° C. After the secondary antibody incubation, plates were washed 3× with washing buffer and added with 100 μL of ELISA chemiluminescent substrate (Thermofisher). The luminescence signal was detected by SpectraMax i3x at […].
In general terms: ELISA stands for enzyme-linked immunosorbent assay.

Assay [2] concerns the target T2, recombinant human IGFBP-1 (human, UniProt P08833 26-259).
T2 construct: also called rhIGFB-1
T2 sequence (looked up): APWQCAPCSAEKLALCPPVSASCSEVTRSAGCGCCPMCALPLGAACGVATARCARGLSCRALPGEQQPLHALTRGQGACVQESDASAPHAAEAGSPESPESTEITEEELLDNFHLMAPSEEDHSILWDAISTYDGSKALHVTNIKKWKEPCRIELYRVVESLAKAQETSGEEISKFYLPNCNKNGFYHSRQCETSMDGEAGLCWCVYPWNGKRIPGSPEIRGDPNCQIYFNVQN
The experiment in a line: ELISA.

The target in the next assay is T3, recombinant human EpCAM (human, UniProt P16422 24-265).
T3 construct: also called rhEpCAM
T3 sequence (looked up): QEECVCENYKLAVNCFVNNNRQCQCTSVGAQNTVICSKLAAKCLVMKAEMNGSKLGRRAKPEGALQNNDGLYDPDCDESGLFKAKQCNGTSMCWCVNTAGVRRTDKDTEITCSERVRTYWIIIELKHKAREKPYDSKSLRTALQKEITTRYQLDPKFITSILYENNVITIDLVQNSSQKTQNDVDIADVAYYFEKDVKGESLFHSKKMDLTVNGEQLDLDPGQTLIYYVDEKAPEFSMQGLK
The experiment in a line: ELISA.

The target of a further assay is T4, human TROP2 on cells (human, UniProt P09758 27-323).
T4 construct: Full human TROP2, either transiently transfected into HEK or CHO cells or endogenous on cancer cell lines; also called HEK-TROP2; CHO-TROP2
T4 sequence: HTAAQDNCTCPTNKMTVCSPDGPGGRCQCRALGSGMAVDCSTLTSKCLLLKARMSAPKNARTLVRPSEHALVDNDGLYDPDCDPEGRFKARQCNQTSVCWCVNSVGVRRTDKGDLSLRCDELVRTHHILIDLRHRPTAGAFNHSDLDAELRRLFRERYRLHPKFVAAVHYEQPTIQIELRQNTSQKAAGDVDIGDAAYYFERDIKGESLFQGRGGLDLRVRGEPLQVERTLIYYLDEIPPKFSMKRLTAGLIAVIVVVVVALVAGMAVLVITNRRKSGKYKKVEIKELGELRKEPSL
The experiment in a line: flow cytometry, 100 nM antibody, transiently transfected HEK cells, APC anti-human Fc. In outline: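 HEK parental cells transiently transfected (lipofectamine) with human TROP2 truncation mutants, harvested 24 h later and Fc-blocked 10 min at RT. Anti-TROP2 sdAbs at 100 nM bound 30 min on ice, then detected with APC anti-human Fc (30 min) and 7-AAD added for viability.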

The target of assay [3] is T1, recombinant human TROP2 extracellular …. In words: competitive ELISA on coated recombinant human TROP2, competitor KD004-His, anti-His-HRP. As for the experimental part: The epitope characterization was assessed by competitive ELISA (FIG. 8 and FIG. 9). Microplates were coated with human recombinant TROP2 at 4° C. overnight. After washing, plates were blocked with blocking buffer (PBS+2% BSA), for 1 hour at room temperature. Meanwhile, the dilution for anti-TROP2 VHH sdAbs was prepared with blocking buffer making two different dilutions depending on the tag. For sdAbs with His tag, the antibody was diluted to 28571.4 pM. For sdAbs without tag, antibodies were serially diluted from 2857142.9 pM to 0.29 pM (8 dilutions, 10×). After that, equal volume of the his-tagged sdAbs and serial diluted non-tagged sdAbs were mixed, to make the final concentration of his-tagged sdAbs 14285.7 pM and non-tagged sdAbs from 1428571.4 pM to 0.14 pM. After washing two times, the mixed antibody contents were added into the wells and the plates were incubated for 2 hours at room temperature. The HRP-conjugated anti-6× His was diluted to 1:5000 and added to the wells after washing three times. Any unbound conjugate was removed by washing after 1 hour incubation at room temperature, and the colorimetric reaction was performed by adding the same volume of Supersignal ELISA Pico Luminol/Enhancer and SuperSignal ELISA Pico Stable Peroxide Solution and detected on SpectraMax i3x Microplate Reader. Positive and negative controls were included in each plate.

For assay [4] the target is unchanged. The experiment in a line: ELISA, coated rh TROP2, normalized to KD005.

Substitutions are numbered along the chain they refer to.

B1: KD002 (antibody, human IgG1, V domains shown)
VH: QVQLQESGGGMVQVGGSLRLSCAASGFPFSSADMSWVRQAPGKGPEWVSYINADGSKTYYPDSVKGRFTISRDNAKNTLYLLMNNLKPEDTALYRCARAKLTDTHYVEDYWGQGTQVTVSS
notes: also called anti-TROP2 sdAb KD002
As for B1, the EC50 in assay [1] came to 0.07 nM.

B2: KD007 (antibody, human IgG1, V domains shown)
VH: QVQLQESGGGLVQPGGSLRLSCAASGFAFSFYAMAWYRQAPGKQRDMVATITAYGNTNYADSVKGRFTTSRDNAKNTVYLQMNSLKPEDTAVYVCNANLPSASHNYWGQGTQVTVSS
notes: also called anti-TROP2 sdAb KD007
For B2, the binding result in assay [2] is “no binding”; with recombinant human EpCAM it was “no binding”; with human TROP2 on cells it was “binds”.

B3: KD004 (antibody, human IgG1, V domains shown)
VH: QVQLQESGGGLVQPGRSLRLSCAASGFTFSGSDMSWVRQAPGKGPEWVSYITGSGTTYYPDSVKGRFTTSRDNAKNMLYLQMNSLKPDDTALYRCAKARLTDSHYVEDAWGQGTQVTVSS
notes: also called anti-TROP2 sdAb KD004
As to B3, the “IC50 (read off the curve)” value in assay [3] is roughly 60 nM.

B4: KD005 (antibody, human IgG1, V domains shown)
VH: B3 VH with Q13E, P14A, R16G, G53S, S54G, T69I, M77T, A98S
notes: also called anti-TROP2 sdAb KD005
For B4, the “EC50 relative to KD005” value in assay [4] is 1 ratio to KD005.
